Measurements: patent US20060140858A1, “Drug pre-targeting by means of bi-specific antibodies and hapten constructs comprising a carrier peptide and the active agent(s)” (Immunomedics, Inc., priority 2002, published 2006)
Marks after values point to notes of the source that are not given here.

Experiments:
[1] = Pretargeting: I-125 F6 × 734-F(ab′)2, 72 h later In-111-IMP-224, biodistribution; conditions: female, mouse, in vivo, total radioactivity; for tissue to tissue ratio at 1 h / tissue to tissue ratio at 4 h / tissue to tissue ratio at 24 h: 10 uCi, tumor-to-normal organ ratio; for tissue uptake at 1 h / tissue uptake at 4 h / tissue uptake at 24 h: % ID/g tissue
GW-39 tumor xenografts = assay: as above
[2] = In-vivo stability and clearance of IMP 224; parameters: species or system mouse
Experimental: Kits were reconstituted with 4 mCi In-111 in 0.5 mL water. The In-111 kit was incubated at room temperature for 10 min and then diluted with 0.5 mL of the cold indium containing 0.5 M pH 7.2 acetate buffer.

[3] = In-vitro stability of In/In-111 IMP 224, reverse phase HPLC; assay type: physicochemical
Experimental: Aliquots (0.15 mL, 370 μCi) were withdrawn and mixed with 0.9 mL 0.5 M citrate buffer pH 4.0, 0.9mL 0.5 M citrate buffer pH 5.0, and 0.9 mL 0.5 M phosphate buffer pH 7.5. The stability of the labeled peptide was followed by reverse phase HPLC. HPLC Conditions: Waters Radial-Pak C-18 Nova-Pak 8×100 mm, Flow Rate 3 mL/min, Gradient: 100% A=0.3.% NH4OAc to 100% B=90% CH3CN, 0.3% NH4OAc over 10 min.

[4] = nude (Taconic NCRNU), Blood, 1 h
[5] = nude (Taconic NCRNU), Blood, 4 h
[6] = nude (Taconic NCRNU), Blood, 24 h
[7] = nude (Taconic NCRNU), Kidney, 1 h
[8] = nude (Taconic NCRNU), Kidney, 4 h
[9] = nude (Taconic NCRNU), Kidney, 24 h
[10] = nude (Taconic NCRNU), Large Int., 1 h
[11] = nude (Taconic NCRNU), Large Int., 4 h
[12] = nude (Taconic NCRNU), Large Int., 24 h
[13] = nude (Taconic NCRNU), Lungs, 1 h
[14] = nude (Taconic NCRNU), Lungs, 4 h
[15] = nude (Taconic NCRNU), Lungs, 24 h
[16] = nude (Taconic NCRNU), Muscle, 1 h
[17] = nude (Taconic NCRNU), Small Int., 4 h
[18] = nude (Taconic NCRNU), Small Int., 24 h
[19] = nude (Taconic NCRNU), Stomach, 1 h
[20] = nude (Taconic NCRNU), Stomach, 4 h
[21] = nude (Taconic NCRNU), Stomach, 24 h

`COc1cccc2c1C(=O)c1c(O)c3c(c(O)c1C2=O)C[C@@](O)(C(CO)=NNc1ccc(C(=O)N[C@@H](CCCCNC(=O)CN(CCN(CCN(CC(=O)O)CC(=O)O)CC(=O)O)CC(=O)O)C(=O)N[C@@H](Cc2ccc(O)cc2)C(=O)N[C@@H](CCCCNC(=O)CN(CCN(CCN(CC(=O)O)CC(=O)O)CC(=O)O)CC(=O)O)C(N)=O)cc1)C[C@@H]3O[C@H]1C[C@H](N)[C@H](O)[C@H](C)O1` [IMP 224, Dox = N—NH—C6H4—CO-Lys(DTPA)-Tyr-Lys(DTPA)-NH2] showed a tissue to tissue ratio at 1 h ([1]; NCRNU nude, GW-39, 1 h) of 1, a tissue to tissue ratio at 4 h ([1]; NCRNU nude, GW-39, 4 h) of 1 and a tissue to tissue ratio at 24 h ([1]; NCRNU nude, GW-39, 24 h) of 1. For the same compound, the tissue to tissue ratio at 1 h ([1]; NCRNU nude, Liver, 1 h) was 24 ± 5.9, the tissue to tissue ratio at 4 h ([1]; NCRNU nude, Liver, 4 h) was 35.4 ± 6.9 and the tissue to tissue ratio at 24 h ([1]; NCRNU nude, Liver, 24 h) was 31.6 ± 5.8. For the same compound, the tissue to tissue ratio at 1 h ([1]; NCRNU nude, Tail, 1 h) was 9.4 ± 2.8, the tissue to tissue ratio at 4 h ([1]; NCRNU nude, Tail, 4 h) was 26.4 ± 5.2 and the tissue to tissue ratio at 24 h ([1]; NCRNU nude, Tail, 24 h) was 55.9 ± 5.7. The tissue to tissue ratio at 1 h ([1]; NCRNU nude, Urine, 1 h) was 0.3 ± 0.5, the tissue to tissue ratio at 4 h ([1]; NCRNU nude, Urine, 4 h) was 0.71 ± 0.6 and the tissue to tissue ratio at 24 h ([1]; NCRNU nude, Urine, 24 h) was 8.3 ± 1.3. The tissue to tissue ratio at 1 h [1, 4] was 6.1 ± 2.5, the tissue to tissue ratio at 4 h [1, 5] was 12.8 ± 2 and the tissue to tissue ratio at 24 h [1, 6] was 41.8 ± 6.3. For the same compound, the tissue to tissue ratio at 1 h [1, 7] was 3 ± 0.5, the tissue to tissue ratio at 4 h [1, 8] was 3.9 ± 0.5 and the tissue to tissue ratio at 24 h [1, 9] was 5 ± 0.5. The tissue to tissue ratio at 1 h [1, 10] was 87.1 ± 35, the tissue to tissue ratio at 4 h [1, 11] was 45.6 ± 19 and the tissue to tissue ratio at 24 h [1, 12] was 92.4 ± 38. The tissue to tissue ratio at 1 h [1, 13] was 13.4 ± 2.7, the tissue to tissue ratio at 4 h [1, 14] was 30.1 ± 4.9 and the tissue to tissue ratio at 24 h [1, 15] was 69 ± 9.4. The tissue to tissue ratio at 1 h [1, 16] was 38.6 ± 13, the tissue to tissue ratio at 4 h ([1]; nude (Taconic NCRNU), Muscle, 4 h) was 727 ± 797 and the tissue to tissue ratio at 24 h ([1]; nude (Taconic NCRNU), Muscle, 24 h) was 283 ± 46. The tissue to tissue ratio at 4 h [1, 17] was 51.6 ± 14, the tissue to tissue ratio at 24 h [1, 18] was 110 ± 13 and the tissue to tissue ratio at 1 h ([1]; nude (Taconic NCRNU), Spleen, 1 h) was 28.7 ± 8.7. For the same compound, the tissue to tissue ratio at 4 h ([1]; nude (Taconic NCRNU), Spleen, 4 h) was 44.7 ± 10, the tissue to tissue ratio at 24 h ([1]; nude (Taconic NCRNU), Spleen, 24 h) was 47 ± 2.2 and the tissue to tissue ratio at 1 h [1, 19] was 48.7 ± 37. For the same compound, the tissue to tissue ratio at 4 h [1, 20] was 128 ± 46, the tissue to tissue ratio at 24 h [1, 21] was 147 ± 39 and the tissue uptake at 1 h [1, 4] was 1.8 ± 0.6 %ID/g. The tissue uptake at 4 h [1, 5] was 0.9 ± 0.2 %ID/g, the tissue uptake at 24 h [1, 6] was 0.2 %ID/g and the tissue uptake at 1 h [1, 7] was 3.5 ± 0.6 %ID/g. The tissue uptake at 4 h [1, 8] was 2.8 ± 0.3 %ID/g, the tissue uptake at 24 h [1, 9] was 1.9 ± 0.2 %ID/g and the tissue uptake at 1 h [1, 10] was 0.1 %ID/g. For the same compound, the tissue uptake at 4 h [1, 11] was 0.3 ± 0.1 %ID/g, the tissue uptake at 24 h [1, 12] was 0.1 ± 0.1 %ID/g and the tissue uptake at 1 h [1, 13] was 0.8 ± 0.2 %ID/g. The tissue uptake at 4 h [1, 14] was 0.4 %ID/g, the tissue uptake at 24 h [1, 15] was 0.1 %ID/g and the tissue uptake at 1 h [1, 16] was 0.3 ± 0.2 %ID/g. The tissue uptake at 1 h ([1]; nude (Taconic NCRNU), Small Int., 1 h) was 0.5 ± 0.4 %ID/g, the tissue uptake at 4 h [1, 17] was 0.2 %ID/g and the tissue uptake at 24 h [1, 18] was 0.1 %ID/g. The tissue uptake at 1 h [1, 19] was 0.8 ± 1.3 %ID/g, the tissue uptake at 4 h [1, 20] was 0.1 %ID/g and the tissue uptake at 24 h [1, 21] was 0.1 %ID/g. For the same compound, the “% ID/g tissue” value (GW-39 tumor xenografts; GW-39, 1 h) was 10.3 ± 1.7 % ID/g, the “% ID/g tissue” value (GW-39 tumor xenografts; GW-39, 4 h) was 11.0 ± 2.0 % ID/g and the “% ID/g tissue” value (GW-39 tumor xenografts; GW-39, 24 h) was 9.7 ± 1.1 % ID/g. For the same compound, the “% ID/g tissue” value (GW-39 tumor xenografts; Liver, 1 h) was 0.4 ± 0.1 % ID/g, the “% ID/g tissue” value (GW-39 tumor xenografts; Liver, 4 h) was 0.3 ± 0.0 % ID/g and the “% ID/g tissue” value (GW-39 tumor xenografts; Liver, 24 h) was 0.3 ± 0.0 % ID/g. For the same compound, the “% ID/g tissue” value (GW-39 tumor xenografts; Muscle, 4 h) was 0.0 ± 0.0 % ID/g, the “% ID/g tissue” value (GW-39 tumor xenografts; Muscle, 24 h) was 0.0 ± 0.0 % ID/g and the tumor-to-normal organ ratio (GW-39 tumor xenografts; Small Int., 1 h) was 31.9 ± 18. For the same compound, the “% ID/g tissue” value (GW-39 tumor xenografts; Spleen, 1 h) was 0.4 ± 0.1 % ID/g, the “% ID/g tissue” value (GW-39 tumor xenografts; Spleen, 4 h) was 0.2 ± 0.0 % ID/g and the “% ID/g tissue” value (GW-39 tumor xenografts; Spleen, 24 h) was 0.2 ± 0.0 % ID/g. The “% ID/g tissue” value (GW-39 tumor xenografts; Tail, 1 h) was 1.1 ± 0.2 % ID/g, the “% ID/g tissue” value (GW-39 tumor xenografts; Tail, 4 h) was 0.4 ± 0.1 % ID/g and the “% ID/g tissue” value (GW-39 tumor xenografts; Tail, 24 h) was 0.2 ± 0.0 % ID/g. For the same compound, the “% ID/g tissue” value (GW-39 tumor xenografts; Urine, 1 h) was 168 ± 106 % ID/g, the “% ID/g tissue” value (GW-39 tumor xenografts; Urine, 4 h) was 31.8 ± 31 % ID/g and the “% ID/g tissue” value (GW-39 tumor xenografts; Urine, 24 h) was 1.2 ± 0.2 % ID/g. The “Activity Recovered” value ([2]; Serum, 30 min, Animal #1) was 1.92 µCi, the “Activity Recovered” value ([2]; Serum, 30 min, Animal #2) was 3.64 µCi and the “Activity Recovered” value ([2]; Serum, 1 hr, Animal #1) was 1.21 µCi. The “Activity Recovered” value ([2]; Serum, 1 hr, Animal #2) was 1.27 µCi, the “Activity Recovered” value ([2]; Urine, 30 min, Animal #1) was 220 µCi and the “Activity Recovered” value ([2]; Urine, 30 min, Animal #2) was 133 µCi. For the same compound, the “Activity Recovered” value ([2]; Urine, 1 hr, Animal #1) was 41.1 µCi, the “Activity Recovered” value ([2]; Urine, 1 hr, Animal #2) was 273 µCi and the dose excreted ([2]; mouse, urine, 400 uCi, read-out: renal excretion) was roughly 100%. For the same compound, the “integrity of excreted peptide (reverse phase HPLC)” value ([2]; urine) was “excreted intact in the urine”, the “antibody binding of urine activity (size exclusion HPLC)” value ([2]; urine, 30 min and 1 hr) was “could still bind to the antibody” and the “Intact Peptide” value ([3]; Kit, time cell empty (first line)) was 00. For the same compound, the “Intact Peptide” value ([3]; Kit, time printed '1 hr') was 9, the “Intact Peptide” value ([3]; pH 4.0, time printed '4 min') was 00 and the “Intact Peptide” value ([3]; pH 4.0, time printed '9 hr') was 5. For the same compound, the “Intact Peptide” value ([3]; pH 4.0, time printed 'hr', some peptide decomposed but not included in peak areas) was 00*, the “Intact Peptide” value ([3]; pH 5.0, time printed '0 min') was 00 and the “Intact Peptide” value ([3]; pH 5.0, time printed '0 hr') was 1. The “Intact Peptide” value ([3]; pH 5.0, time printed 'hr', some peptide decomposed but not included in peak areas) was 00*, the “Intact Peptide” value ([3]; pH 7.5, time printed '0 hr') was 0 and the “Intact Peptide” value ([3]; pH 7.5, time printed '.5 hr' (first line)) was 00. The “Intact Peptide” value ([3]; pH 7.5, time printed '.5 hr' (second line)) was 4.
